From patent US20210330744A1, “Methods and Compositions for Treating Neurodegeneration and Fibrosis” (Temple University-Of The Commonwealth System of Higher …, priority 2017, published 2021) come the findings set out here.

One assay deals with T1, mtCU (Mus musculus, UniProt Q3UMR5+Q8VCX5).
T1 construct: After treating wildtype (WT) MEFs with TGFβ for 12 hours, fibroblasts were permeabilized with digitonin; endogenous in cells; host or cells: wild-type (C57/BL6) mouse embryonic fibroblasts, digitonin-permeabilized, with or without 12 h TGFβ
The assay can be described thus: Evaluation of mCa2+ uptake in permeabilized MEFs (Fura-2, Hill fit). It is filed as cell-based. Here is the method: Before permeabilization, MEFs were washed in extracellular-like Ca^2+-free buffer (120 mM NaCl, 5 mM KCl, 1 mM KH2PO4, 0.2 mM MgCl2, 0.1 mM EGTA, 20 mM HEPEs-NaOH, pH 7.4). MEFs (1.5 million) were then transferred to intracellular-like medium (ICM) (120 mM KCl, 10 mM NaCl, 1 mM KH2PO4, 20 mM HEPES-Tris, protease inhibitors, 5 mM succinate, 2 μM thapsigargin, 40 μg ml^−1 digitonin, 10 μM CGP-37157 (NCLX inhibitor), pH 7.2). ICM was cleared with Chelex 100 to remove trace Ca^2+. MEFs were gently stirred and 1 μM Fura-2 was added to monitor extra-mitochondrial Ca^2+. At 20 seconds, JC-1 was added to monitor Δψ. Fluorescence signals were monitored in a temperature controlled (37° C.) multi-wavelength-excitation/dual-wavelength-emission spectrofluorometer (Delta RAM, Photon Technology Int.) using 490-nm excitation (ex)/535-nm emission (em) for the JC-1 monomer, 570-nm ex/595-nm em for the J-aggregate of JC-1, and 340- and 380-nm ex/510-nm em for Fura-2. […]
To quantify actual Ca^2+ content, a standard curve of Ca^2+ binding Fura-2 was generated from serial diluted Ca^2+ standards (0.01-120 μM) in ICM. Fura-2 fluorescence ratio was converted to [Ca^2+] by the following equation: [Ca^2+]=Kd*(R−Rmin)/(Rmax−R)*Sf2/Sb2. (Rmin (ratio in 0-Ca^2+)=1.341; Rmax (ratio at saturation)=27.915; Sf2 (380/510 reading in 0-Ca^2+)=15822.14; Sb2 (380/510 reading with Ca^2+ saturation)=1794.32). […]

The subject of assay [1] is H3K27me2. The assay can be described thus: Western blot of methylated histone 3 lysine residues. Type of assay: cell-based, mouse. To be noted: 0, 12 or 24 h treatment. The protocol:
All protein samples were lysed by homogenization in RIPA buffer supplemented with phosphatase inhibitors and protease inhibitors. Samples were sonicated briefly and centrifuged at 5,000 g for 10 minutes. The supernatant was collected and used for further analysis. Protein amount was quantified using the Bradford Protein Assay and equal amounts of protein (10-50 μg) were run by electrophoresis on polyacrylamide Tris-glycine SDS gels. Gels were transferred to PVDF and membranes were blocked for 1 hour in Blocking Buffer followed by incubation with primary antibody overnight at 4° C. Membranes were washed in TBS-T 3 times for 5 minutes each and then incubated with secondary antibody for 1 hour at room temperature. After incubation with fluorescent secondary antibodies, membranes were washed in TB S-T 3 times for 5 minutes each and then imaged on a Licor Odyssey system. The following antibodies were used in the study: MCU (1:1,000), MCUb (1:250,), MICU1 (1:500,), MCUR1 (1:500), EMRE (1:250, Santa Cruz, sc-86337), VDAC (1:1,000), PDHE1α phospho 5293 (1:1,000), PDHE1α (1:1,000,), IDH3A (1:500), α-tubulin (1:1,000), ETC respiratory chain complexes (1:2,500), H3K4me3 (1:2,000), H3K9me3 (1:2,000), H3K27me3 (1:2,000), H3K4me2 (1:2,000), H3K9me2 (1:2,000), H3K27me2 (1:2,000), H3 (1:2000); and secondary antibodies: anti-mouse (1:12,000), anti-rabbit, (1:12,000), and anti-goat (1:12,000).
A general note: In western blotting, separated proteins are transferred to a membrane and probed.

The test system of assay [2] is H3K27me2. Kind of assay: H3K27me2 ChIP-qPCR at Postn and Pdgfra loci. It is filed as cell-based, mouse. To be noted: control cells (Ad-βgal), 12 hours. Here is the method:
ChIP was performed using the ChIP-IT High Sensitivity. Cells were fixed, lysed and sonicated for 30 minutes (30 seconds on, 30 seconds off) leading to chromatin fragments between 200 and 1200 base pairs. DNA-bound protein was immunoprecipitated using 2 μg anti-H3K27me2 or IgG. Following IP, cross-links were reversed, protein was removed, and DNA was purified. qPCR was performed with equal amounts of H3K27me2-immunoprecipitated sample, IgG-immunoprecipitated sample, and input sample. Values were normalized to input measurements and fold enrichment was calculated. qPCR primers (Table 4) were designed to target gene loci regions flanking or nearby myofibroblast transcription factor predicted binding sites according to Genomatrix-MatInspector Software analysis.
A general note: In qPCR the cycle at which signal appears reflects the starting amount.

T1 sequence (Q3UMR5 50-350): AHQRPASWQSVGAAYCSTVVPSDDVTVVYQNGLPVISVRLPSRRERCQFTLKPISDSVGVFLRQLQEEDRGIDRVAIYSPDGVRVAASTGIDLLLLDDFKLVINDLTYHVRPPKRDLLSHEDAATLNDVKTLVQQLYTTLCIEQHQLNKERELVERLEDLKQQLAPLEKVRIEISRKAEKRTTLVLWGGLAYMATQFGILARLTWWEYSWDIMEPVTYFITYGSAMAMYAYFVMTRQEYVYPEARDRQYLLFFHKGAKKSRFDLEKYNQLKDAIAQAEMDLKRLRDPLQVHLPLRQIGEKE
T1 sequence (Q8VCX5 34-477): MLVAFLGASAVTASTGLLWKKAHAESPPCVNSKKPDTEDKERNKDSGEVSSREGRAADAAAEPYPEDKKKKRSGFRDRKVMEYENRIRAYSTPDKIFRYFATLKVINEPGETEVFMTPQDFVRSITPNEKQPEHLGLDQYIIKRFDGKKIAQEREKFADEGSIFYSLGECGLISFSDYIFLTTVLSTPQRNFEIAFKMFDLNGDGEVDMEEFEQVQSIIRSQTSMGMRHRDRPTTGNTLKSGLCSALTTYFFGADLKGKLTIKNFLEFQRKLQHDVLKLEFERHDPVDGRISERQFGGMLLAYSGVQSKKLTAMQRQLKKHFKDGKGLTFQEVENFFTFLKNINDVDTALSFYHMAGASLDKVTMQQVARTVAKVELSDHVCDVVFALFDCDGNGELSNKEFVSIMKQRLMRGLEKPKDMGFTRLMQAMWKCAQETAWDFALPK
T1 sequence (Q9DB10 48-107 partner): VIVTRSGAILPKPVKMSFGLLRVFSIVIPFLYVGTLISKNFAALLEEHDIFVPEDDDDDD
T1 sequence (Q8CD10 23-432 partner): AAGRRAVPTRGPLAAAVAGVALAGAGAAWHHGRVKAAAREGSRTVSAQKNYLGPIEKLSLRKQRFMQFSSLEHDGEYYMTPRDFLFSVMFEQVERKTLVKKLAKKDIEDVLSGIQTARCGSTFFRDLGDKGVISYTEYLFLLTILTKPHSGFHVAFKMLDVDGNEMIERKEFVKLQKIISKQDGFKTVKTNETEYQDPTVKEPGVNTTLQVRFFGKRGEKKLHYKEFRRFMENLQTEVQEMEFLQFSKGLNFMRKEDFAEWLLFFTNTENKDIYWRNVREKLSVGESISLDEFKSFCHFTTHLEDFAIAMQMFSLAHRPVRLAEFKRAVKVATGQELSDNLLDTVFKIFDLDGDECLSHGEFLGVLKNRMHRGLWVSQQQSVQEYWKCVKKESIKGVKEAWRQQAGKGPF

For “TGFβ: recombinant mouse Transforming growth factor-β, pro-fibrotic agonist”, the “Hill coefficient of mCa2+ uptake dose response curve” value in the assay with mtCU (WT MEFs treated 12 hours, control cells 4.29) was found to be 10.27. For the same substance, in the assay with mtCU (following delivery of ~0.5-2 μM [Ca2+], 12 hours treatment), the “mCa2+ uptake” value is on record as “decrease”. Further, in the assay on H3K27me2 [1], the “dimethylation of H3K27 (H3K27me2)” value was “progressive decrease”. Moreover, the “H3K27me2 enrichment at the Postn and Pdgfra loci” value in the assay with H3K27me2 [2] is given as “lost”.
